Experimental data published in patent US8304206B2, “Mass spectrometry assays for identifying compounds that activate deacetylases” (Sirtris Pharmaceuticals, Inc., priority 2005, dated 2012).
Several values for one entry are separate records, joined by “and”; a condition that tells them apart may be missing. Equal values may be shown once.

Substrate: CCCC[C@H](NC(=O)[C@H](CCCCNC(C)=O)NC(=O)[C@H](CO)NC(=O)[C@H](Cc1c[nH]cn1)NC(=O)[C@H](CO)NC(=O)[C@H](CO)NC(=O)[C@@H](NC(=O)[C@H](CO)NC(=O)[C@H](CCC(N)=O)NC(=O)CNC(=O)[C@H](CCCCNC(=O)CCCC[C@@H]1SC[C@@H]2NC(=O)N[C@@H]21)NC(=O)[C@H](CCC(=O)O)NC(=O)[C@H](CCC(=O)O)NC(C)=O)[C@@H](C)O)C(=O)N[C@@H](CO)C(=O)N[C@H](C(=O)N[C@@H](CCC(=O)O)C(=O)NCC(=O)N[C@@H](CCCCNC(=O)c1ccc2c(c1)C(=O)OC21c2ccc(N(C)C)cc2Oc2cc(N(C)C)ccc21)C(=O)N[C@@H](CCC(=O)O)C(=O)N[C@@H](CCC(=O)O)C(N)=O)[C@@H](C)O
Assay: SIRT1 Km for Acetylated Peptide Substrate (mass spectrometry)
Type: biochemical, human
Details: pH 8.0, 25.0 °C
Protocol: Briefly, 1 μL of vehicle (DMSO) was added to each well of a Costar 96-well clear round bottom assay plate and 10 μL of 10% formic acid was added to all of the wells in row A. The Acetylated Peptide Substrate was serially diluted. Wells A2, A3, A4, A5, A6, A7, A8, A9, A10, A11 and A12 of a Costar 2 mL 96 well Assay Block were filled with 600 μL of Substrate Dilution Working Solution (SDWS; 4 mM NAD^+, 50 mM Tris HCl pH 8.0, 137 mM NaCl, 2.7 mM KCl, 1 mM MgCl2, 5 mM DTT, and 0.05% BSA). […] The APSTD-WS was serially diluted into SDWS by transferring 600 μL of APSTD-WS from well A1 to […] of the Costar 2 mL 96 well Assay Block. The solution was mixed 5 times and the process was continued by moving across row A, until well A12 was reached.
The Enzyme Working Solution (20 nM SIRT1, 50 mM Tris HCl pH 8.0, 137 mM NaCl, 2.7 mM KCl, 1 mM MgCl2, 5 mM DTT, 0.05% BSA) was prepared. […]
At 0, 3, 6, 9, 12, 15, 20, and 25 minutes, the reaction was stopped with 10% formic acid and the conversion of substrate to product was determined by mass spectrometry.
SIRT1 enzyme activity at 12 concentrations of SIRT1 Acetylated Peptide Substrate was monitored by comparing the percent conversion of Acetylated Peptide Substrate to Deacetylated Peptide Product over time. The reaction rate at each substrate concentration was determined as the slope of the product formation versus time plot in the linear range. […]

B1: SIRT1 (Homo sapiens) (protein)
chain: MADEAALALQPGGSPSAAGADREAASSPAGEPLRKRPRRDGPGLERSPGEPGGAAPEREVPAAARGCPGAAAAALWREAEAEAAAAGGEQEAQATAAAGEGDNGPGLQGPSREPPLADNLYDEDDDDEGEEEEEAAAAAIGYRDNLLFGDEIITNGFHSCESDEEDRASHASSSDWTPRPRIGPYTFVQQHLMIGTDPRTILKDLLPETIPPPELDDMTLWQIVINILSEPPKRKKRKDINTIEDAVKLLQECKKIIVLTGAGVSVSCGIPDFRSRDGIYARLAVDFPDLPDPQAMFDIEYFRKDPRPFFKFAKEIYPGQFQPSLCHKFIALSDKEGKLLRNYTQNIDTLEQVAGIQRIIQCHGSFATASCLICKYKVDCEAVRGDIFNQVVPRCPRCPADEPLAIMKPEIVFFGENLPEQFHRAMKYDKDEVDLLIVIGSSLKVRPVALIPSSIPHEVPQILINREPLPHLHFDVELLGDCDVIINELCHRLGGEYAKLCCNPVKLSEITEKPPRTQKELAYLSELPPTPLHVSEDSSSPERTSPPDSSVIVTLLDQAAKSNDDLDVSESKGCMEEKPQEVQTSRNVESIAEQMENPDLKNVGSSTGEKNERTSVAGTVRKCWPNRVAKEQISRRLDGNQYLFLPPNRYIFHGAEVYSDSEDDVLSSSSCGSNSDSGTCQSPSLEEPMEDESEIEEFYNGLEDEPDVPERAGGAGFGTDGDDQEAINEAISVKQEVTDMNYPSNKS
notes: The SirT1 gene was cloned into a T7-promoter containing vector and transformed into BL21(DE3); His-tag (N); made in house; host or cells: E. coli BL21(DE3)
Km (other: Sirt1, Mass Spectrometry, present invention): 11.6 µM | Km (other: single replicate plates, 2 mM NAD+, 1% DMSO): 11.2 µM and 11.9 µM
